Molecular target: T1, mouse Ebi3 subunit of recombinant IL-35, V5-His-tagged (mouse, UniProt O35228 19-228)
T1 sequence: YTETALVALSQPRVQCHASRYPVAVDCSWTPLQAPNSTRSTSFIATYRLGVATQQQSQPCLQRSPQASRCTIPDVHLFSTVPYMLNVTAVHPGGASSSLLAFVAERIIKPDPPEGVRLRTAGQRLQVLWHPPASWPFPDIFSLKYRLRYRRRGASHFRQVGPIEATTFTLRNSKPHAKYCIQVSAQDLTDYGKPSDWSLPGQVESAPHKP
Experiment: co-IP

B1: mouse IL-12p35 (p35) subunit of recombinant IL-35, Flag-tagged (natural protein)
chain: RVIPVSGPARCLSQSRNLLKTTDDMVKTAREKLKHYSCTAEDIDHEDITRDQTSTLKTCLPLELHKNESCLATRETSSTTRGSCLPPQKTSLMMTLCLGSIYEDLKMYQTEFQAINAALQNHNHQQIILDKGMLVAIDELMQSLNHNGETLRQKPPVGEADPYRVKMKLCILLHAFSTRVVTINRVMGYLSSA
B1: binds.
